Results from the DeepSol protein solubility set.

Assay: soluble on expression in E. coli; label from the status in PepcDB or PDB records

Sequence | soluble on expression in E. coli
MGSDKIHHHHHHMSLNSTPQSVRVHIGLFGKRNAGKSSIINAITNQSAAIVSDIAGTTTDPVFRPMEILPIGPCVLIDTAGLDDVGELGELRIGKSLDVLEKTDIALLVVDCQIGISQEDLSLIEKFNDKNIPHILILNKIDTIKNQSEILNLTKNKVKCPVVSVSSTDKIGIENLKNEIIKVLPKDSTEFKLVSDLIEPNDLVVLVVPIDKAAPKGRLILPQQQVIRDILDNGAISIVTKEDSLKETLSNLGKKPKLVITDSQVFPQVDKDTPKDIPLTSFSILFARQKGDLKELINGAYALENLKDGDKILMAEGCTHHRQTDDIGTVKIPNMIRKKTGKNITFEFSSGVSFTEDINKYALVVHCGACMMNRAGMLSRIEKAKSFNVPIVNYGVLIAYVKGILERSLELFNY | not soluble
SMEVFQNHFEPGVYVCAKCGYELFSSRSKYAHSSPWPAFTETIHADSVAKRPEHNRSEALKVSCGKCGNGLGHEFLNDGPKPGQSRFSIFSSSLKFVPKGKETSA | soluble
SLNVNFFVTCIGDALKSRMARDSVLLLEKLGCRVNFPEKQGCCGQPAINSGYIKEAIPGMKNLIAALEDNDDPIISPAGSCTYAVKSYPTYLADEPEWASRAEKVAARMQDLTSFIVNTLGVVDVGASLQGRAVYHPSCSLARKLGVKDEPLTLLKNVRGLELLTFAEQDTCCGFGGTFSVKMAEISGEMVKEKVAHLMEVRPEYLIGADVSCLLNISGRLQREGQKVKVMHIAEVLMSR | soluble
MGSDKIHHHHHHMKLMRIQEMEEYILSHGTVSLDELCQVFNVSKNTVRRDINKLTEKGAIEKVYGGVTSIEKTALVPFENRTIQHQDEKTKIAHYASRFIEDHDLVFIDSGTTTKSILDTLDPAKNVTILTNSLDIINAASALKNINLIIIGNNYKRKTRSFVGMDDPAMLDKYNINKAFMSATGTTLTHGLTNSDLLEYEIKKRISEKAKEVYLLADHSKFGKSTLLTYAPFDRLHCIVTSQPLDDEYTQYCNEHQIGIHLA | not soluble
MVLVLDFGSQYTRLIARRLRELRAFSLILPGDAPLEEVLKHRPQALILSGGPRSVFDPDAPRPDPRLFSSGLPLLGICYGMQLLAQELGGRVERAGRAEYGKALLTRHEGPLFRGLEGEVQVWMSHQDAVTAPPPGWRVVAETEENPVAAIASPDGRAYGVQFHPEVAHTPKGMQILENFLELAGVKRDWTPEHVLEELLREVRERAGKDRVLLAVSGGVDSSTLALLLAKAGVDHLAVFVDHGLLRLGEREEVEGALRALGVNLLVVDAKERFLKALKGVEDPEEKRKIIGREFVAAFSQVARERGPFRFLAQGTLYPDVIESAGGHGAAKIKSHHNVGGLPEDLEFELLEPFRLLFKDEVRELALLLGLPDTLRLRHPFPGPGLAVRVLGEVTEERLEILRRADDIFTSLLRERGLYEKVAQALAVLTPVRSVGVAGDERKYGYVLALRAVTTEDFMTADWARLPLEFLDEAARRITRRVPEIGRVVYDLTSKPPATIEWE | soluble
MLSANRDCAFGRVHDFAGIRNAGDFRDKVPMHTYAQLQPWIERAQHESGAVLTTRPPLFFERSSGNSALQKLIPYTPEFLAQLQGSLTVWLADMYRQVPEISHGSGYWSMSPPLQQPAVSANGIPVGSVSDLQYLQGSAIAGLAGTLLIPDLAHDVVHWRRQTLLALVADADLSFISVWSPTFLTSLLQPLFDTERQTCAWLEAMLPASRKLALRHARAQGVFTELWPRLAAVSCWMDGPSHGYAVQLAALFPQARWLPKGLFATEGVVSVPFGEGQGCPLAIGSHYLEFVGDDGLPRGARSLRMGETAQVLLTTGAGLYRYVLGDRVRMVGNHAGTPRVAFVGRSASACDLVGEKLDEQLVEGVLAQCIDSADSACLIPDSRNTPPHYVALVSTSAVTPGQVLANSIETVLQGSFHYAHARTLGQLGPLRVRFVSGGAQTLAALLQRAAEATGVRAGDVKPRALISRLDTANALLAITEEFECPHL | not soluble
MYEEFRDVITFQSYVEQSNGEGGKTYKWVDEFTAAAHVQPISQEEYYKAQQLQTPIGYNIYTPYDDRIDKKMRVIYRGKIVTFIGDPVDLSGLQEITRIKGKEDGAYVG | soluble
SNAGAPLKAVSAFAPPMKTQDFNLYTNEVHAKFDDYDLGMEYARQHNKPVMLDFTGYGCVNCRKMELAVWTDPKVSSIINNDYVLITLYVDNKTPLTEPVKIMENGTERTLRTVGDKWSYLQRVKFGANAQPFYVLIDNEGNPLNKSYAYDEDISKYINFLQTGLENYRKEK | soluble
MAGRVKWVTDIEKSVLINNFEKRGWIQVTENEDWNFYWMSVQTIRNVFSVETGYRLSDDQIVNHFPNHYELTRKDLMVKNIKRYRKELEKEGSPLAEKDENGKYLYLDFVPVTYMLPADYNLFVEEFRKSPSSTWIMKPCGKAQGKGIFLINKLSQIKKWSRDSKTSSFVSQSTKEAYVISVYINNPLLIGGRKFDLRLYVLVSTYRPLRCYMYKLGFCRFCTVKYTPSTSELDNMFVHLTNVAIQKHGEDYNHIHGGKWTVNNLRLYLESTRGREVTSKLFDEIHWIIVQSLKAVAPVMNNDKHCFECYGYDIIIDDKLKPWLIEVNASPSLTSSTANDRILKYNLINDTLNIAVPNGEIPDCKWNKSPPKEVLGNYEILYDEELAQGDGAERELRNRPGQPVGPRAGRSRDSGRSVLTTWK | not soluble
MGSSHHHHHHSSGLVPRGSHMRVAMISMHTSPLQQPGTGDSGGMNVYILSTATELAKQGIEVDIYTRATRPSQGEIVRVAENLRVINIAAGPYEGLSKEELPTQLAAFTGGMLSFTRREKVTYDLIHSHYWLSGQVGWLLRDLWRIPLIHTAHTLAAVKNSYRDDSDTPESEARRICEQQLVDNADVLAVNTQEEMQDLMHHYDADPDRISVVSPGADVELYSPGNDRATERSRRELGIPLHTKVVAFVGRLQPFKGPQVLIKAVAALFDRDPDRNLRVIICGGPSGPNATPDTYRHMAEELGVEKRIRFLDPRPPSELVAVYRAADIVAVPSFNESFGLVAMEAQASGTPVIAARVGGLPIAVAEGETGLLVDGHSPHAWADALATLLDDDETRIRMGEDAVEHARTFSWAATAAQLSSLYNDAIANENVDGETHHG | soluble
MGSDKIHHHHHHMTKPNQDAIGMLPFKQSTVSLQVQEHYKTPMLLLGYQQRWCADLTPVKVCEKSRRIGLSWGEAADSALFAASQKGMDTWYIGYNKDMAQEFIRDCADWAKAYGLAAGEIEETEEIFKEGDEEKAILAYVIRFSSGWRITALSSRPSNLRGKQGRVIIDEAAFHDDLPELLKAAMALLMWGGQVHIISTHNGVDNPFNELVNEVRAGKKPYSLHTITFDDAIKDGLYQRICLRLGRTWSQQAQDEWVAEIRASYGDAAAEELDCIPRNSGGAWLTRALIESRMNADTPRLCLEKKDEFALQPEPIRNREIAQWCDENLYPVLTALPEKQRHFLGMDFARSGDLSVIAIGQEQSDLCLKNVLLLELSNIPFAQQEQIYFYIGDRLPRFSKAANDARGNGQSLSEKAFDRYGAIVEGVMLSESWYREHTAPFKAALEDDTLFDIVKNDDVLADLRAFQVVKGIPRLPDKRTVGQNKTKRHGDAAIAYLLLHYAYRTDQSFEINFRSTGTRTTTQLFNNNSFERVRTGRGFGSIRGGNDFRGY | not soluble
MAKWLRDYLSFGGRRPPPQPPTPDYTESDILRAYRAQKNLDFEDPYEDAESRLEPDPAGPGDSKNPGDAKYGSPKHRLIKVEAADMARAKALLGGPGEELEADTEYLDPFDAQPHPAPPDDGYMEPYDAQWVMSELPGRGVQLYDTPYEEQDPETADGPPSGQKPRQSRMPQEDERPADEYDQPWEWKKDHISRAFAVQFDSPEWERTPGSAKELRRPPPRSPQPAERVDPALPLEKQPWFHGPLNRADAESLLSLCKEGSYLVRLSETNPQDCSLSLRSSQGFLHLKFARTRENQVVLGQHSGPFPSVPELVLHYSSRPLPVQGAEHLALLYPVVTQTP | soluble
MKRTTLVMLLLTLCGFSSASFALSESEAEDLADLTAVFVYLKNDCGYQELPNNEIKRAIVYFAQQNRWDLHNYDSFNMKALGEDSYRDLRGIALPTPVKCKSLARDSLSLLAYAN | not soluble
PPESDGFSDVRKVGYLRKPKSMHKRFFVLRAASEAGGPARLEYYENEKKWRHKSSAPKRSIPLESCFNINKRADSKNKHLVALYTRDEHFAIAADSEAEQDSWYQALLQLHNRAKGHHDGAAALGAGGGGGSCSGSSGLGEAGEDLSYGDVPPGPAFKEVWQVILKPKGLGQTKNLIGIYRLCLTSKTISFVKLNSEAAAVVLQLMNIRRCGHSENFFFIEVGRSAVTGPGEFWMQVDDSVVAQNMHETILEAMRAMSDEFRPR | soluble
MRDATPFYEATGHEIEVFERAWRHGLPVLLKGPTGCGKTRFVQYMARRLELPLYSVACHDDLGAADLLGRHLIGADGTWWQDGPLTRAVREGGICYLDEVVEARQDTTVAIHPLADDRRELYLERTGETLQAPPSFMLVVSYNPGYQNLLKGLKPSTRQRFVALRFDYPAAQQEARILVGESGCAETLAQRLVQLGQALRRLEQHDLEEVASTRLLIFAARLIGDGMDPREACRVALAEPLSDDPATVAALMDIVDLHVALEHHHHHH | not soluble
MENQEVVLSIDAIQEPEQIKFNMSLKNQSERAIEFQFSTGQKFELVVYDSEHKERYRYSKEKMFTQAFQNLTLESGETYDFSDVWKEVPEPGTYEVKVTFKGRAENLKQVQAVQQFEVKMAGDPLEHHHHHH | soluble
MSWIERIKSNITPTRKASIPEGVWTKCDSCGQVLYRAELERNLEVCPKCDHHMRMTARNRLHSLLDEGSLVELGSELEPKDVLKFRDSKKYKDRLASAQKETGEKDALVVMKGTLYGMPVVAAAFEFAFMGGSMGSVVGARFVRAVEQALEDNCPLICFSASGGARMQEALMSLMQMAKTSAALAKMQERGLPYISVLTDPTMGGVSASFAMLGDLNIAEPKALIGFAGPRVIEQTVREKLPPGFQRSEFLIEKGAIDMIVRRPEMRLKLASILAKLMNLPAPNPEAPREGVVVPPVPDQEPEALEHHHHHH | not soluble
MSQFKNIIVTGGAGFIGSNFVHYVYNNHPDVHVTVLDKLTYAGNKANLEAILGDRVELVVGDIADAELVDKLAAKADAIVHYAAESHNDNSLNDPSPFIHTNFIGTYTLLEAARKYDIRFHHVSTDEVYGDLPLREDLPGHGEGPGEKFTAETNYNPSSPYSSTKAASDLIVKAWVRSFGVKATISNCSNNYGPYQHIEKFIPRQITNILAGIKPKLYGEGKNVRDWIHTNDHSTGVWAILTKGRMGETYLIGADGEKNNKEVLELILEKMGQPKDAYDHVTDRAGHDLRYAIDASKLRDELGWTPQFTDFSEGLEETIQWYTDNQDWWKAEKEAVEANYAKTQEVIK | soluble
MGSDKIHHHHHHMKHYEAYGIATRNTKIQGQFYRLADEEVFIHHFEPLQKNNDIILLLHGYMDHSLTSARLINRLISEGFEVVALDWPGHGLSKGETYHIRSFRQYNTIFLQLVQDMIERWGSDRIHLIAHSTGAGVVLDGLTNNLKKMPTGGIVLTSPLIKLPSHRIGKLFLPFVRKWRKQVRRIYRTNSSDPLFMKAIEEDPLQHEVIPLTWFDAYLQWHEDMRRRAKCSAENVTILQGTRDTTVHWKANMKWLAETLPSAERILIDGGGHHLWNEGDLIRELVFRFILKRLKKT | not soluble
MSLKKIGVLGMGYVGIPAAVLFADAPCFEKVLGFQRNSKSSGYKIEMLNRGESPLKGEEPGLEELIGKVVKAGKFECTPDFSRISELDAVTLAIQTPFANPKDLEPDFSALIDGIRNVGKYLKPGMLVVLESTITPGTTEGMAKQILEEESGLKAGEDFALAHAPERVMVGRLLKNIREHDRIVGGIDEASTKRAVELYSPVLTVGQVIPMSATAAEVTKTAENTFRDLQIAAINQLALYCEAMGINVYDVRTGVDSLKGEGITRAVLWPGAGVGGHCLTKDTYHLERGVKIGRGELDYPEGADSIYVLARKVNDFMPAHMYNLTVAALERLGKKMDGSKVAMLGWAFIKDSDDARNTPSEPYRDLCLKAGASVMVHDPYVVNYPGVEISDNLEEVVRNADAIVVLAGHSAYSSLKADWAKKVSAKANPVIIDGRNVIEPDEFIGKGFVYKGIGREGHHHHHH | not soluble
